Assay results from patent US20250074980A1 (BRIGHAM AND WOMEN S HOSPITAL, published 2025).
Numbering of substitutions follows the chain as printed. Numbers in names are those of the source. Where “and” joins values, the source holds several entries; their conditions need not be identical. Equal entries are not always repeated.

B1: chimeric antibody VH0/Vκ0 (antibody, IgG4, V domains shown)
VH: EVQLVESGGDLVKPGGSLKLACAASGFIFSSHGMSWVRQTPDKRLEWVATISSGGTYTYYPDSVKGRFTISRDNDKNTLYLQMNSLKSEDTAMYYCARHDFDYDAAWFAYWGQGTLVTVSS
VL: QIVLTQSPALMSASPGVKVTMTCSANSSVSYMYWYRQKPRSSPKPWIYLTSNLASGVPARFSGSGSGTSYSLTISSMEAEDAATYYCQQWSSNPPTFGSGTKLEIK
notes: IgG4 (S241P), kappa; also called VH0/Vκ0 (control); Chimeric VH0/Vκ0
B2: VH1/Vκ8 S29A (antibody, IgG4, V domains shown)
VH: B1 VH with V5L, D10G, K13Q, K19R, A21S, T40A, D42G, R44G, D75S, S88A
VL: EIVLTQSPATLSLSPGERATLSCRANSAVSYMYWYQQKPGQAPRPWIYLTSNRATGVPARFSGSGSGTDYTLTISSLEPEDFAVYYCQQWSSNPPTFGQGTKLEIK
notes: IgG4 (S241P), kappa; also called Parent; Parent (VH1/Vκ8 S29A)
B3: CP08H03/CP08F05 (antibody, V domains shown)
VH: EVQLLESGGGLVQPGGSLRLSCAASGFIFSSHGMSWVRQAPGKGLEWVATISSGGTYTYYPDSVKGRFTISRDNSKNTLYLQMNSLKAEDTAMYYCARHDFDYFPYWFAHWGQGTLVTVSS
VL: B2 VL with S91T
notes: IgG4 (S241P), kappa
B4: CP08H03/Vκ8 S29A (antibody, IgG4, V domains shown)
VH: B3 VH
VL: B2 VL
notes: IgG4 (S241P), kappa; also called CP08_H03/Parent VL; CP08_H03/Parental

Legend:
His-tagged CEACAM1 [1] = biological target: T1, His-tagged CEACAM1 (human, UniProt P13688 35-428); assay: SPR multi-cycle, purified IgG captured
T1 construct: 45 kDa SPR analyte; also called CEACAM1-HIS; CEACAM1 analyte
T1 sequence: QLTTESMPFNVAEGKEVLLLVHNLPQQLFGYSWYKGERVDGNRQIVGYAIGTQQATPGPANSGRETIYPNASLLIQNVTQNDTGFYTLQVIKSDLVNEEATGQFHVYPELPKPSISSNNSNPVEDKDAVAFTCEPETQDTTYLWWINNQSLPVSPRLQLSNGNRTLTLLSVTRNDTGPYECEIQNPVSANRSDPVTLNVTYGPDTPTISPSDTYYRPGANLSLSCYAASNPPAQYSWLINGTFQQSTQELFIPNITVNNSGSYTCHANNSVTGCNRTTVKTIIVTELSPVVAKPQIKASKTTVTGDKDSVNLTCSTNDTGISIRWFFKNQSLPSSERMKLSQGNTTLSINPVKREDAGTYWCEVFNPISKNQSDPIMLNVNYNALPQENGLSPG
Protocol: Variants CP08H03/Vκ8 S29A and CP08H03/CP08F05 were further analyzed using multi-cycle kinetics analysis, using a Biacore T200 instrument running Biacore T200 Evaluation Software V3.0.1. The purified antibodies were diluted to a concentration of 1 μg/ml in HBS-P+. At the start of each cycle, each antibody was captured on the Protein A surface to give an RL of ˜100 RU. Following capture, the surface was allowed to stabilize. Kinetic data was obtained using a flow rate of 80 μl/min to minimize any potential mass transfer effects. Multiple repeats of the blank (no CEACAM1) and a repeat of a single concentration of the analyte were programmed into the kinetic run in order to check the stability of both the surface and analyte over the kinetic cycles. For kinetic analysis, a two-fold dilution range was selected from 100 to 1.56 nM CEACAM1. The association phase of CEACAM1 was monitored for 150 seconds and the dissociation phase was measured for 150 seconds. Regeneration of the Protein A surface was conducted using two injections of 10 mM glycine-HCL pH 1.5 at the end of each cycle.
The signal from the reference channel Fc1 was subtracted from that of Fc2, Fc3 and Fc4 to correct for differences in non-specific binding to a reference surface, and a global Rmax parameter was used in the 1-to-1 binding model. The relative Kp compared to Parent (VH1/Vκ8 S29A) was calculated by dividing the Kp of the affinity matured composite human antibody variants by that of the Parent on the same chip. The kinetic parameters measured for the interaction of CEACAM1 with affinity matured CEACAM1 antibody variants CP08H03/Vκ8 S29A and CP08H03/CP08F05 are shown in Table 23.

[2] = biological target: T2, CEACAM3 (recombinant protein) (human, UniProt P40198 35-155, limits assumed); assay: SPR single-cycle kinetics, antibody captured on Protein A, CEACAM-3 injected at three rising concentrations
T2 construct: construct not described
T2 sequence (looked up): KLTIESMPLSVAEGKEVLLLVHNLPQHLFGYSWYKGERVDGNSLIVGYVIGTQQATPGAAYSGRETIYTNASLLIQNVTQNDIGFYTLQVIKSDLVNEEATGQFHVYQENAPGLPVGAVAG
Protocol: In order to assess the binding of the humanized, affinity matured reformatted lead IgGs, single-cycle kinetics analysis was performed on crude supernatants using a Biacore T200 running Biacore T200 Control Software V2.0.1 and Biacore T200 Evaluation Software V3.0. Antibodies were diluted in HBS-P+ to a final concentration of 0.5 μg/ml. At the start of each cycle, antibodies were loaded onto Fc2, Fc3 and Fc4 of the Protein A chip. IgGs were captured at a flow rate of 10 μl/min to give an immobilisation level (RL) of ˜100 RU (a level calculated to obtain a Rₘₐₓ of ˜50-150 RU once the analyte is bound). The surface was then allowed to stabilize. Single-cycle kinetics data was obtained with CEACAM1 as the analyte at a flow rate of 80 μl/min to minimize any potential mass transfer effects. Multiple repeats with the parent (VH1/Vκ8 S29A) antibody were performed to check the stability of the surface and analyte over the kinetic cycles. The signal from the reference channel Fc1 (no antibody) was subtracted from that of Fc2, Fc3 and Fc4 to correct for differences in non-specific binding to the reference surface. A three point, two-fold dilution range from 70 nM to 280 nM CEACAM1 without regeneration between each concentration was used. The signal from each antibody blank run (no CEACAM1) was subtracted to correct for differences in surface stability. The association phase for the three injections of increasing concentrations of CEACAM1 was monitored for 80 seconds each time and a single dissociation phase was measured for 150 seconds following the last injection of CEACAM1. Regeneration of the Protein A surface was conducted using two injections of 10 mM glycine-HCL pH 1.5 followed by a stabilization period of 250 seconds.
To further assess the binding selectivity of CEACAM1 antibodies VH0/Vκ0, CP08H03/Vκ8 S29A, CP08H03/CP08F05 CEACAM1 over other proteins, binding affinities to CEACAM1, CEACAM3, CEACAM5, and CEACAM6 were compared using single-cycle kinetics analysis performed as described above. Single cycle kinetics was conducted using CEACAM concentrations from 280 nM to 70 nM.

His-tagged CEACAM1 [3] = biological target: T1, His-tagged CEACAM1; assay: SPR single-cycle, purified IgG captured
Procedure, shortened: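 On a Biacore T200, purified IgG was captured on a Series S Protein A chip, and His-tagged CEACAM1 was passed over it as the analyte in single-cycle kinetics surface plasmon resonance at 25° C in HBS-P+ (pH 7.4). Reference-channel and blank-run signals were subtracted before fitting kon, koff and Kd, with relative KD calculated against the parent antibody assayed in the same experiment.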

His-tagged CEACAM1 [4] = biological target: T1, His-tagged CEACAM1; assay: SPR single-cycle, supernatant IgG captured
Procedure, shortened: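 His-tagged CEACAM1 served as analyte over Protein A-captured IgG in single-cycle surface plasmon resonance on a Biacore T200, performed at 25° C in HBS-P+ (pH 7.4). The IgG was taken from supernatants of transiently PEI-transfected HEK EBNA cells grown in 6-well plates and harvested 5-7 days later. Relative KD, alongside fitted Kon, koff and Kd, was referenced to the parent antibody run in the same experiment.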

Binder	Kd (His-tagged CEACAM1 [1])	koff (His-tagged CEACAM1 [1])	kon (His-tagged CEACAM1 [1])	binding result [2]	relative KD to parent (His-tagged CEACAM1 [1])	Kd (His-tagged CEACAM1 [3]) [nM]	koff (His-tagged CEACAM1 [3]) [s⁻¹]	kon (His-tagged CEACAM1 [3]) [M⁻¹ s⁻¹]	relative KD to parent (His-tagged CEACAM1 [3])	Kd (His-tagged CEACAM1 [4]) [nM]	koff (His-tagged CEACAM1 [4]) [s⁻¹]	kon (His-tagged CEACAM1 [4]) [M⁻¹ s⁻¹]	relative KD to parent (His-tagged CEACAM1 [4])
B1	95 nM and 100 nM	0.045 s⁻¹ and 0.035 s⁻¹	470000 M⁻¹ s⁻¹ and 350000 M⁻¹ s⁻¹	no binding	–	–	–	–	–	–	–	–	–
B2	420 nM and 490 nM	0.045 s⁻¹ and 0.06 s⁻¹	110000 M⁻¹ s⁻¹ and 120000 M⁻¹ s⁻¹	–	1	480	0.19	400000	1	550	0.053	96000	1
B3	58 nM	0.0078 s⁻¹	130000 M⁻¹ s⁻¹	no binding	8.4	95	0.0069	73000	5	110	0.0074	70000	5.2
B4	99 nM	0.009 s⁻¹	91000 M⁻¹ s⁻¹	no binding	4.3	120	0.0075	63000	4	130	0.0085	65000	4.2
